Experimental data taken from patent publication EP4617284A1 (Shanghai Novamab Biopharmaceuticals Co., Ltd., dated 2025).
Where “and” joins values, the source holds several entries; their conditions need not be identical. Equal values may be shown once.

B1: MY9219 (bispecific antibody)
chain: EVQLQESGGGLVEPGGSLRLSCVASGFTFQHYAMSWVRQAPGKGLEWVSSISMVGGGTSYADSVKGRFTMSRDNAKNTLYLQLNSLKSEDTAMYYCVRGWHPDVPRPLGQGTLVTVSSGGGGSGGGGSGGGGSGGGGSEVQLLESGGGLVQPGGSLRLSCAASGFTFSDYTMTWVRQAPGKGLEWVSTVNPDGDSTFYRDSVKGRFTISRDNAKNTLYLQLSSLKTEDTAMYYCTKASLITWPQSPRGQGTLVTVSSGGGGSGGGGSGGGGSGGGGSEVQLLESGGGLVQPGESLRLSCEVSGHTHTNYCMGWFRQAPGKGLEGVAAIDTDGSTTYADSVKGRFTISKDNAKNTLYLQMNSLKPEDTAMYYCMAEDFRDEYAPEPRLSSGGYCSIGYGMDYWGKGTLVTVSSA
notes: Trivalent long-acting nanobody: two anti-IL-13 VHH and one anti-HSA VHH in one chain; also called HSA HuNb3-11-MY9286-GS20-MY9293-GS20
B2: MY9431 (VHH)
chain: EVQLLESGGGLVQPGGSLRLSCAASGFTFSDYTMTWVRQAPGKGLEWVSTVNPDGDSTFYRDSVKGRFTISRDNAKNTLYLQLSSLKTEDTAMYYCTKASLITWPQSPRGQGTLVTVSSGGGGSGGGGSGGGGSGGGGSEVQLLESGGGLVQPGESLRLSCEVSGHTHTNYCMGWFRQAPGKGLEGVAAIDTDGSTTYADSVKGRFTISKDNAKNTLYLQMNSLKPEDTAMYYCMAEDFRDEYAPEPRLSSGGYCSIGYGMDYWGKGTLVTVSS
B3: MY9293 (VHH)
VHH: EVQLLESGGGLVQPGESLRLSCEVSGHTHTNYCMGWFRQAPGKGLEGVAAIDTDGSTTYADSVKGRFTISKDNAKNTLYLQMNSLKPEDTAMYYCMAEDFRDEYAPEPRLSSGGYCSIGYGMDYWGKGTLVTVSS
B4: MY9466 (VHH)
VHH: EVQLLESGGGLVQPGESLRLSCEVSGHTHTNYCMGWFRQAPGKGLEGVAAIDTDGSTTYADSVKGRFTISKDNAKNTLYLQMNSLKPEDTAMYYCMAEDFRDEYAPEPRLSSGGYCSIGYGMDYWGKGTLVTVSS
B5: Lebrikizumab (antibody, V domains shown)
VH: QVTLRESGPALVKPTQTLTLTCTVSGFSLSAYSVNWIRQPPGKALEWLAMIWGDGKIVYNSALKSRLTISKDTSKNQVVLTMTNMDPVDTATYYCAGDGYYPYAMDNWGQGSLVTVSS
VL: DIVMTQSPDSLSVSLGERATINCRASKSVDSYGNSFMHWYQQKPGQPPKLLIYLASNLESGVPDRFSGSGSGTDFTLTISSLQAEDVAVYYCQQNNEDPRTFGGGTKVEIKR
B6: HuNb3-11 (VHH)
VHH: EVQLQESGGGLVEPGGSLRLSCVASGFTFQHYAMSWVRQAPGKGLEWVSSISMVGGGTSYADSVKGRFTMSRDNAKNTLYLQLNSLKSEDTAMYYCVRGWHPDVPRPLGQGTLVTVSS
notes: also called HSA HuNb3-11; Control antibody 3
B7: MY9286 (VHH)
VHH: EVQLLESGGGLVQPGGSLRLSCAASGFTFSDYTMTWVRQAPGKGLEWVSTVNPDGDSTFYRDSVKGRFTISRDNAKNTLYLQLSSLKTEDTAMYYCTKASLITWPQSPRGQGTLVTVSS
B8: MY9464 (VHH)
chain: EVQLLESGGGLVQPGESLRLSCEVSGHTHTNYCMGWFRQAPGKGLEGVAAIDTDGSTTYADSVKGRFTISKDNAKNTLYLQMNSLKPEDTAMYYCMAEDFRDEYAPEPRLSSGGYCSIGYGMDYWGKGTLVTVSSGGGGSGGGGSGGGGSGGGGSEVQLLESGGGLVQPGGSLRLSCAASGFTFSDYTMTWVRQAPGKGLEWVSTVNPDGDSTFYRDSVKGRFTISRDNAKNTLYLQLSSLKTEDTAMYYCTKASLITWPQSPRGQGTLVTVSS
B9: MY9470 (VHH)
chain: EVQLLESGGGLVQPGESLRLSCEVSGHTHTNYCMGWFRQAPGKGLEGVAAIDTDGSTTYADSVKGRFTISKDNAKNTLYLQMNSLKPEDTAMYYCMAEDFRDEYAPEPRLSSGGYCSIGYGMDYWGKGTLVTVSSGGGGSGGGGSGGGGSGGGGSEVQLLESGGGLVQPGESLRLSCEVSGHTHTNYCMGWFRQAPGKGLEGVAAIDTDGSTTYADSVKGRFTISKDNAKNTLYLQMNSLKPEDTAMYYCMAEDFRDEYAPEPRLSSGGYCSIGYGMDYWGKGTLVTVSS
B10: MY9217 (bispecific antibody)
chain: EVQLLESGGGLVQPGGSLRLSCAASGFTFSDYTMTWVRQAPGKGLEWVSTVNPDGDSTFYRDSVKGRFTISRDNAKNTLYLQLSSLKTEDTAMYYCTKASLITWPQSPRGQGTLVTVSSGGGGSGGGGSGGGGSGGGGSEVQLQESGGGLVEPGGSLRLSCVASGFTFQHYAMSWVRQAPGKGLEWVSSISMVGGGTSYADSVKGRFTMSRDNAKNTLYLQLNSLKSEDTAMYYCVRGWHPDVPRPLGQGTLVTVSSGGGGSGGGGSGGGGSGGGGSEVQLLESGGGLVQPGESLRLSCEVSGHTHTNYCMGWFRQAPGKGLEGVAAIDTDGSTTYADSVKGRFTISKDNAKNTLYLQMNSLKPEDTAMYYCMAEDFRDEYAPEPRLSSGGYCSIGYGMDYWGKGTLVTVSSA
notes: Trivalent long-acting nanobody: two anti-IL-13 VHH and one anti-HSA VHH in one chain; also called MY9286-GS20-HSA HuNb3-11-GS20-MY9293

Assays:
human serum albumin [1] = target: T1, human serum albumin (human, UniProt P02768 25-609); test: HSA binding activity, pH 5.5; method not described
T1 construct: also called HSA

recombinant human IL-13 [2] = target: T2, recombinant human IL-13 (human, UniProt P35225 35-146, limits assumed); test: cell-based or functional assay
T2 sequence (P35225 35-146 limits assumed): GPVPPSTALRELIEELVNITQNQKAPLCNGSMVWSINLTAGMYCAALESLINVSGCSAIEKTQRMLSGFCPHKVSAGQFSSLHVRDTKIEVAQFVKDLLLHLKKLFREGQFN

human serum albumin [3] = target: T1, human serum albumin; test: HSA binding activity, pH 7.4; method not described
recombinant human IL-13 [4] = target: T2, recombinant human IL-13; test: cell-based or functional assay; remark: listed apart in the source
recombinant human IL-13 [5] = target: T2, recombinant human IL-13; test: cell-based or functional assay; remark: listed apart in the source

Row | Binder | EC50 (human serum albumin [1]) [µg/mL] | IL-13 functional activity IC50 (recombinant human IL-13 [2]) [µg/mL] | EC50 (human serum albumin [3]) [µg/mL] | Activity IC50 (µg/mL), HEK-Blue IL-4/IL-13 cells (recombinant human IL-13 [4]) [µg/mL] | also measured
1 | B1 | 0.0648 | 0.0024 | 0.0467 |  | 
2 | B2 |  |  |  | 0.0014 | 
3 | B3 |  |  |  |  | Humanized nanobody IC50 (µg/mL), HEK-Blue IL-4/IL-13 cells (recombinant human IL-13 [5]): 1.05 µg/mL
4 | B4 |  |  |  | 0.0038 | 
5 | B5 |  | 0.0076 |  |  | Control antibody 2 IC50 (µg/mL), HEK-Blue IL-4/IL-13 cells (recombinant human IL-13 [4]): 0.0043 µg/mL and 0.0041 µg/mL and 0.004 µg/mL
6 | B6 | 0.164 |  | 0.11 |  | 
7 | B7 |  |  |  |  | Humanized nanobody IC50 (µg/mL), HEK-Blue IL-4/IL-13 cells (recombinant human IL-13 [5]): 3.42 µg/mL
8 | B8 |  |  |  | 0.0029 | 
9 | B9 |  |  |  | 1.75 | 
10 | B10 | 0.0953 | 0.0029 | 0.0648 |  | 
